In US7795009:

Tested on: prothrombin

## Factor Xa
  sensitized acceptor emission of the thrombin beacon as a function of time: This conversion resulted in a time-dependent increase of beacon signal
